Two molecules from patent US6995018 (US Dept. of Health and Human Services, dated 2006) can be followed below.

In assay [1] the target is T1, human complement Factor H (human, UniProt P08603 19-1231).
T1 construct: In some experiments Factor H is the endogenous protein of normal human serum; also called fH; purified human Factor H (Quidel)
The assay is described as follows: steady state fluorescence, titration of purified human Factor H with rDMP1. From the text: (§1) Steady state fluorescence studies were accomplished by titrating purified human complement Factor H with rBSP, rOPN, and rDMP1 followed by excitation at 295 nm and monitoring emission between 300 and 450 nm. The emission profile of Factor H alone yields a peak at 347 nm. The addition of rBSP, rOPN, or rDMP1 in nm increments causes a relative fluorescent intensity quenching. Conversion of the fluorescent intensity titration into a binding curve by determining the fraction of binding sites occupied as the fractional change in fluorescence quenching at 347 nm yields a saturable binding curve. […] Given that normal serum concentration of Factor H is ~0.5 mg/mL it is probable that virtually all BSP, OPN, and DMP1 in serum will be complexed with Factor H.

In assay [2] the target is T1, human complement Factor H. The assay is described as follows: steady state tryptophan fluorescence quenching, titration of Factor H with BSP.
Source text: as §1

Assay [3] addresses T2, αVβ3 integrin on murine erythroleukemia (MEL) cells (murine (MEL cells), UniProt P43406 31-1044; O54890 26-787).
T2 construct: whole, on cells; also called integrins; cell surface integrins
The assay is described as follows: inferred from MEL cell complement lysis assay with GRGDS peptide, αVβ3 antibody and RGD->KAE mutant. As to the method:
MEL cells prepared as in FIG. 8 were treated with normal rBSP (10 μg/mL), rBSP whose RGD sequence had been mutated to KAE ([…]), and either GRGDS (SEQ ID NO: 10) peptide (400 μM) followed by rBSP or an αVβ3 antibody (1:4000) followed by rBSP for 10 minutes prior to the addition of normal human serum. The cells were then incubated for 10 minutes after which cell viability determined using the MTT assay (A). A cohort of MEL cells were pretreated with rOPN (10 μg/mL) alone, GRGDS (SEQ ID NO: 10) peptide followed by rOPN, the αVβ3 antibody followed by rOPN, or an anti-CD44 antibody (Chemicon, Co.) followed by rOPN, or hyaluronan (HA) followed by rOPN (B). Cells were then treated with normal human serum and viability assayed as in FIG. 8. […] Statistical significance was determined by analysis of variance. Percent cell viability was determined using A560 absorbance values of various conditions and a control where no serum had been added (100% viable). […]
Murine erytliroleukemia (MEL) cells (a gift of Dr. Marilyn Farquhar, Univ. CA San Diego.) grown in DMEM containing 10% fetal bovine serum and 4 mM glutamine were rinsed three times with gelatin veronal buffer with Mg_2^+ and EGTA (GVB-MgEGTA, Sigma, St. Louis, Mo.). […] Cell viability was determined spectrophotometrically by absorbance at 560 nm.

T1 sequence (P08603 19-1231 limits assumed): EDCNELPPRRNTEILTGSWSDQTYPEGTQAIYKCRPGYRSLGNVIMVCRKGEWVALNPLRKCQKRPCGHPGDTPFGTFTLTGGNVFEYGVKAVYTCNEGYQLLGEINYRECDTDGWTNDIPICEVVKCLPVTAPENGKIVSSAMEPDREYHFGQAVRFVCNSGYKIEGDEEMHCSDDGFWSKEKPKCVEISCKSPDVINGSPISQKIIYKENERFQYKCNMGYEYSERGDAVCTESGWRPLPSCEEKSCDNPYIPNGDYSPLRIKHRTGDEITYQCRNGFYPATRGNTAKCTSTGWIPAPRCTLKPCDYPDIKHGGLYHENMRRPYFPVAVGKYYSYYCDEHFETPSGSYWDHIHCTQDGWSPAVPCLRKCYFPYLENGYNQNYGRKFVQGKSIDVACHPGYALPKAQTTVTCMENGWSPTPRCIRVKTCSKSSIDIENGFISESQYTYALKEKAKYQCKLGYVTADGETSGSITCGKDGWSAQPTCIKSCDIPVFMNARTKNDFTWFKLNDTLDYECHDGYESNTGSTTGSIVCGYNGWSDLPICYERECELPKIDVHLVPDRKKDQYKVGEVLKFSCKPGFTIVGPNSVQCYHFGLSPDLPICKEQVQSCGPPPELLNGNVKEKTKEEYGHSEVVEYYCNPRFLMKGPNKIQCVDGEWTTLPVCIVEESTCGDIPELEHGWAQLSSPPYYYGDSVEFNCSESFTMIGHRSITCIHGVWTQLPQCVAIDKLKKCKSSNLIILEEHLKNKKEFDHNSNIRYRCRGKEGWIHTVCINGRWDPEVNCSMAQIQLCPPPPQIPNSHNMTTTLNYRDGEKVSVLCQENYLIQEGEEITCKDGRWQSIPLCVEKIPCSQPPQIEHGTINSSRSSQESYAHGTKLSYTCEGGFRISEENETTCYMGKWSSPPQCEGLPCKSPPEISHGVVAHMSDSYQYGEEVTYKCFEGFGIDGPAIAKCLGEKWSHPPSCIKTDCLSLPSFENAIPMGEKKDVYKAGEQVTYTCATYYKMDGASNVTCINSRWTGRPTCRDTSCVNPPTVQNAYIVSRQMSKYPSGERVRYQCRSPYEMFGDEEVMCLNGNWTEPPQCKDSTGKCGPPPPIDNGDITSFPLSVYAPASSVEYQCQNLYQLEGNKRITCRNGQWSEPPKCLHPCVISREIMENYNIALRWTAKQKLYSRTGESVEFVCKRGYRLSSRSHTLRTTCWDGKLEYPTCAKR
T2 sequence (P43406 31-1044, chain 1 of 2): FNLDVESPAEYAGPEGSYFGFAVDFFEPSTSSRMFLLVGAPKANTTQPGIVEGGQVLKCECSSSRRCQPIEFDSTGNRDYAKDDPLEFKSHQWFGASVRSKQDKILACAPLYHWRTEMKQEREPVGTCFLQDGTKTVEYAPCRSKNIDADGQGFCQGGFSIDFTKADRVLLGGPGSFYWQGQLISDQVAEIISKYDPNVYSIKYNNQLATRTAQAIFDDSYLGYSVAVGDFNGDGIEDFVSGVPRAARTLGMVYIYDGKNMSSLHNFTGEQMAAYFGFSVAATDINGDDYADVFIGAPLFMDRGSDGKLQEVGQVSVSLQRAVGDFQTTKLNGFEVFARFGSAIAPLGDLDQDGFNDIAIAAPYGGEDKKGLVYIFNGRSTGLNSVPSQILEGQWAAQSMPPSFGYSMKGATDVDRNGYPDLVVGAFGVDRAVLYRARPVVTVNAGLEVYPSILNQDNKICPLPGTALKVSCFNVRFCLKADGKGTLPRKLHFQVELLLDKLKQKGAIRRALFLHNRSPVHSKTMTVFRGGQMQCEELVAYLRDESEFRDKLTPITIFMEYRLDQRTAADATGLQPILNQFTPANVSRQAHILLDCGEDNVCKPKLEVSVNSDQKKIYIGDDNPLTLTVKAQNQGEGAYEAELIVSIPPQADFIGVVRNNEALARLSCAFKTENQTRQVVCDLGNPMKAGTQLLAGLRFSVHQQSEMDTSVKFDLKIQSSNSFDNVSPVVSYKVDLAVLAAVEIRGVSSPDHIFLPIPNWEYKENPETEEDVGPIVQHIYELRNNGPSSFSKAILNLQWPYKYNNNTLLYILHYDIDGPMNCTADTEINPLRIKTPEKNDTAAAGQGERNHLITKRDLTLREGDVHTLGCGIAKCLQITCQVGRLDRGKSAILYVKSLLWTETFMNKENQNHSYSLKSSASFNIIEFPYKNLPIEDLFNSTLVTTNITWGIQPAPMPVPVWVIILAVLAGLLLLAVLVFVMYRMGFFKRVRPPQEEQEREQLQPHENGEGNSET
T2 sequence (O54890 26-787, chain 2 of 2): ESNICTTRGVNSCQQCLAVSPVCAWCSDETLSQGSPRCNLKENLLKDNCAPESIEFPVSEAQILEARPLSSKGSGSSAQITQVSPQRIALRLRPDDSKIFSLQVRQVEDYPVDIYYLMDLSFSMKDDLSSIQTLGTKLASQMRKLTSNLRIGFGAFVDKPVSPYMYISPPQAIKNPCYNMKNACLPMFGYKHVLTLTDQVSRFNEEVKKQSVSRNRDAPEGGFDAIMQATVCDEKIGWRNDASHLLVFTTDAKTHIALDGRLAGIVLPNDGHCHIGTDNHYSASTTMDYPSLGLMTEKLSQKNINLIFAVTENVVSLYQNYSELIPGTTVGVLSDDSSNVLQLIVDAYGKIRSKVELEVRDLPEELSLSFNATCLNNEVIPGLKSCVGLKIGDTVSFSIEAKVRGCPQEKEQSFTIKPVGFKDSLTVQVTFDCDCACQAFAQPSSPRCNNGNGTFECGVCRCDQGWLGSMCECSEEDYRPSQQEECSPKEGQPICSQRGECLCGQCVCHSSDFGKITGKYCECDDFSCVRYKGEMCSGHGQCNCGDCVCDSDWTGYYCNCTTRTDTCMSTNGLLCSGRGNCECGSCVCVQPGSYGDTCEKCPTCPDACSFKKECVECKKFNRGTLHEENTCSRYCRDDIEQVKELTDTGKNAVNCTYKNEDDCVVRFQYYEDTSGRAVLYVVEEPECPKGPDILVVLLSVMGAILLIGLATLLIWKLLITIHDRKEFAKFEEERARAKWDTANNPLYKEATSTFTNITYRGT

B1: recombinant dentin matrix protein 1 (rDMP1) (ligand)
chain: LPVTRYQNNESEDSEEWKGHLAQAPTPPLESSESSEGSKVSSEEQANEDPSDSTQSEEGLGSDDHQYIYRLAGGFSRSTGKGGDDKDDDEDDSGDDTFGDDDSGPGPKDRQEGGNSRLGSDEDSDDTIQASEESAPQGQDSAQDTTSESRELDNEDRVDSKPEGGDSTQESESEEHWVGGGSDGESSHGDGSELDDEGMQSDDPESIRSERGNSRMNSAGMKSKESGENSEQANTQDSGGSQLLEHPSRKIFRKSRISEEDDRSELDDNNTMEEVKSDSTENSNSRDTGLSQPRRDSKGDSQEDSKENLSQEESQNVDGPSSESSQEANLSSQENSSESQEEVVSESRGDNPDPTTSYVEDQEDSDSSEEDSSHTLSHSKSESREEQADSESSESLNFSEESPESPEDENSSSQEGLQSHSSSAESQSEESHSEEDDSDSQDSSRSKEDSNSTESKSSSEEDGQLKNIEIESRKLTVDAYHNKPIGDQDDNDCQDGY
B1: the “stoichiometry (DMP1:Factor H)” value in assay [1] was found to be 1 mol/mol.

B2: recombinant human bone sialoprotein (rBSP) (ligand)
chain: FSMKNLHRRVKIEDSEENGVFKYRPRYYLYKHAYFYPHLKRFPVQGSSDSSEENGDDSSEEEEEEEETSNEGENNEESNEDEDSEAENTTLSATTLGYGEDATPGTGYTGLAAIQLPKKAGDITNKATKEKESDEEEEEEEEGNENEESEAEVDENEQGINGTSTNSTEAENGNGSSGGDNGEEGEEESVTGANAEGTTETGGQGKGTSKTTTSPNGGFEPTTPPQVYRTTSPPFGKTTTVEYEGEYEYTGVNEYDNGYEIYESENGEPRGDNYRAYEDEYSYFKGQGYDGYDGQNYYHHQ
modifications: post-translationally modified by the producing human marrow stromal fibroblasts (glycosylation, sulfation, phosphorylation; sites not stated)
notes: Range 17-317 follows the stated 16-residue leader; not checked against the listing; also called recombinant BSP; purified human BSP
Usually Kd stands for the equilibrium constant for the complex coming apart. A high value points to weaker binding. As for B2, in assay [2], the Kd was ≤ 1 nM and the “stoichiometry (BSP:Factor H)” value is 1 mol/mol. Also, the binding result in assay [3] is listed as “binds”.
